Measurements reported in PMC5750218, “Protein-inspired antibiotics active against vancomycin- and daptomycin-resistant bacteria” (Nature Communications, 2018).
Converted amounts (≈) assume the structure as drawn. Read-outs that look alike come from different tables or passages of the source.

Tests used:
[1] = test system: Methicillin-sensitive S. aureus ATCC 29213; experiment: microbe, parasite or virus in culture; assay type: cell-based, Staphylococcus aureus; conditions: for MIC: Staphylococcus aureus, ATCC 29213 / MSSA
Protocol: Antimicrobial activity of compounds was tested against a number of bacterial strains by broth microdilution (BMD) assay with MIC determination, including S. aureus (MSSA ATCC® 29213™, MRSA ATCC® 43300™, VISA NARSA NRS1, VISA NARSA NRS4), Streptococcus pneumoniae (MDR ATCC® 700677™) and Enterococcus faecium (MDR VanA ATCC® 51559™). ATCC strains were sourced from the American Type Culture Collection and NRS strains from NARSA (Network on Antimicrobial Resistance in S. aureus) via BEI Resources (www.beiresources.org). All compounds were prepared to 160 µg mL^−1 solution in water from a stock solution of 1 mM concentration.
[…] […] Standards ranged from 64 to 0.03 µg mL^−1 and compounds from 8 to 0.003 µg mL^−1 with final assay volumes of 100 µL per well. Gram-positive bacteria were cultured in Mueller Hinton broth (MHB) (Bactolaboratories, Cat. no. 211443) at 37 °C overnight. A sample of each culture was then diluted 40-fold in fresh MHB and incubated at 37 °C for 2–3 h. The resultant mid-log phase cultures were added to the compound-containing 96-well plates to give a final cell density of 5 × 10^5 colony forming unit (CFU) mL^−1. All the plates were covered and incubated at 37 °C for 24 h. MICs were the lowest concentration showing no visible growth.

[2] = 37 °C, 20 µM
Protocol: Briefly, test compounds (20 μM) were prepared from a 0.2 mM H2O stock solution (40 μL in 400 μL assay volume) except eucatropine, which was 300 μg mL^−1 in 100% DMSO (10 μL in 400 μL assay volume equivalent to 23 μM). The precipitating solution was prepared by adding 5 μL of 10 mM carbutamide in DMSO to 100 mL acetonitrile (final concentration: 135.5 ng mL^−1 or 0.5 μM carbutamide). The human plasma sample (pooled normal human plasma sodium heparin anticoagulant, 2 µL, Cat No.: [sequence], BioReclamation) and phosphate-buffer saline (PBS, pH 7.4 isotonic) were pre-heated at 37 °C for 30 min. 40 μL of test compounds (0.2 mM) were added to protein-low binding Eppendorf tubes, 160 μL of buffer was added, and the mixture was vortexed. For eucatropine, 10 μL of eucatropine (300 μg mL^−1) was added to a protein-low binding Eppendorf tube, 190 μL of buffer was added, and the mixture was vortexed. In each case, 200 μL of plasma was added and the resultant mixture vortexed. For the initial time point (reaction time t = 0 h), 50 μL of sample was immediately transferred into a protein-low binding Eppendorf tube and quenched with 150 μL of the ice-cold precipitating solution, followed by vortexing and subsequent storage at 4 °C. For the remaining time points, the plasma solution was incubated and shaken (150 rpm) at 37 °C. 50 μL aliquots were collected at time points of 0, 1, 3, 6 and 24 h and quenched with 150 μL the ice-cold precipitating solution. All samples were placed in a 4 °C fridge for 30 min then centrifuged at 14,000 × g for 8 min at 4 °C. The supernatant (100 μL) was transferred to a glass vial insert and stored at 4 °C until LC-MS/MS analysis. The percentage of test compounds remaining at the individual time points relative to sample at time point 0 h were reported.

[3] = In vivo pharmacokinetics in mice; conditions: mouse; for level at 5 min / level at […] / level at 0.5 h / level at 1 h / level at 2 h / level at 4 h / level at 8 h / level at 24 h: male, CD1, plasma; for level at […]: 0.250 h; for level at 0.5 h: 0.500 h; for bioavailability / AUC(0-inf) / AUC(0-t) / C0 / clearance / half-life / MRT inf / MRT last / Vd / Cmax / Tmax: plasma; for bioavailability: subcutaneous, SC 10 mg kg-1 vs IV 2 mg kg-1; for MRT inf: read-out: MRT0-inf; for MRT last: read-out: MRT0-last; for Vd: read-out: Vdss
Protocol: Performed by WuXi AppTec (Shanghai) Co., Ltd. Seven to 9-week-old male CD1 mice (SLAC Laboratory Animal Co. Ltd., Shanghai, China) weighing 25–35 g were acclimated for approximate 3 days before being used in the study. Animals are group housed during acclimation and in-life study in compliance with the National Research Council 'Guide for the Care and Use of Laboratory Animals.' The animal room environment is controlled (target conditions: temperature 18 to 26 °C, relative humidity 30–70%, 12 h artificial light and 12 h dark) with temperature and relative humidity monitored daily. Animals were deprived of food for approximately 16 h before formulation administration then allowed access to Certified Rodent Diet (Catalogue # M-01F, Shanghai SLAC Laboratory Animal Co. Ltd.) ad libitum 4 h post dosing. Water was autoclaved before being provided to the animals ad libitum. Formulations of compounds were prepared on the morning of the dosing day. The formulation for the IV group was filtered with filter of 0.22 μm before being dosed to animals. After dose formulation preparation, duplicate 50 μL aliquots were removed from each dose formulation for use in dose validation. For each compound studied, three mice were dosed intravenously (IV) administered to each animal via tail vein per facility SOPs using test article formulated in deionised water at 1 mg mL^−1 with a dose volume of 2 mg mL^−1, providing a dose of 2 mg mL^−1 (based on free base concentration). An additional three mice were dosed subcutaneously (SC) administered to each animal via subcutaneous bolus on each animals’ back per facility SOPs using test article formulated in deionised water at 2 mg mL^−1 with a dose volume of 5 mg mL^−1, providing a dose of 10 mg mL^−1. All animals were killed at the last study time point (100% CO2 was introduced into the animal box).
Plasma samples were collected as the following target times after each dose administration: IV Sampling Time points (hours post dosing): 0, 0.083, 0.25, 0.5, 1, 2, 4, 8 and 24. SC Sampling Time points (hours post dosing): 0, 0.25, 0.5, 1, 2, 4, 8 and 24. Approximately 30 μL blood was obtained via submandibular or saphenous vein for the first several time points. For the last time point, samples were collected via cardiac puncture while the mouse was under anaesthesia. All blood samples were transferred into pre-chilled plastic microcentrifuge tubes containing 2 μL of ethylenediaminetetraacetic acid dipotassium salt (K2-EDTA) (0.5 M) as anticoagulant and placed on wet ice until centrifugation. Harvested blood samples were centrifuged within 30 min of collection at 7000 rpm (8546 × g) 4 °C for about 10 min. After centrifugation, plasma was transferred into another pre-labelled and pre-chilled polypropylene microcentrifuge tubes, then quick-frozen over dry ice and stored at −70 ± 10 °C until LC/MSMS analysis.
LC-MS/MS methods for the quantitative determination of the test article in mouse plasma were developed with an internal standard. Benchtop stability of the compound in mouse plasma was determined at mid QC concentrations in triplicate at 0, 2 h at room temperature. The stability was determined using mean peak area ratio of T2/T0 sample. If the mean peak area ratio is within 80%~120%, the test article in the plasma is considered stable for 2 h at room temperature. […] A set of QC samples consists of three concentration levels (low, middle and high). The sample analysis was performed concurrently with a set of calibration standards and two sets of QC samples using the LC-MS/MS method.
Plasma concentration vs. time data from individual animals was analysed by WinNonLin non-compartmental model (Phoenix WinNonlin 6.2.1, Pharsight, Mountain View, CA). Pharmacokinetic parameter C 0, T ½, CL, Vdss, C max, T max, AUC0-last, AUC0-inf, %F, MRT0-last, MRT0-inf and graphs of plasma concentration vs. time profile were derived.

Haemolysis assay = assay type: cell-based; conditions: human, whole blood
Protocol: Haemolytic activity was measured as previously described with slight modifications, [45]. Fresh human venal blood was collected from healthy volunteers and pretreated with the anticoagulant sodium citrate. Serial twofold dilutions of each antibiotic, dissolved in 0.9% NaCl solution, were added to fresh human whole blood (50% final, vol:vol) to the final volume of 80 μL and incubated at 37 °C for 3 h on a horizontal shaker at 200 rpm. For negative and positive controls, human whole blood in 0.9% NaCl solution (A blank) and in sdH2O (A water) were used, respectively. After incubation, both test and A blank were mixed with 1 mL 0.9% NaCl solution, or sdH2O for the complete […] A water. After centrifugation of samples at 2500 rpm (700 × g) for 5 min, the release of haemoglobin was monitored by measuring the absorbance (A sample) of the supernatant at 540 nm using BMG Labtech PolarStar Omega multimode reader. The percentage of haemolysis was calculated according to the equation: %haemolysis=Asample-Ablank∕Awater-Ablank×100

[4] = test system: Bacillus subtilis ATCC 6633; experiment: microbe, parasite or virus in culture; assay type: cell-based; conditions: ATCC 6633, 48 h
[5] = 2 mg/kg IV, n=3, read-out: Plasma concentration, Mean IV
[6] = 2 mg/kg IV, read-out: Plasma concentration, Mean IV
[7] = 10 mg/kg SC, n=3, read-out: Plasma concentration, Mean SC
[8] = 10 mg/kg SC, read-out: Plasma concentration, Mean SC

## CNC(=O)[C@H](CCCCNC(=O)[C@H]1NC(=O)[C@H]2NC(=O)[C@H](NC(=O)[C@@H]3NC(=O)[C@H](CC(N)=O)NC(=O)[C@H](NC(=O)[C@@H](CC(C)C)NC)[C@H](O)c4ccc(c(Cl)c4)Oc4cc3cc(c4O[C@@H]3O[C@H](CO)[C@@H](O)[C@H](O)[C@H]3O[C@H]3C[C@](C)(N)[C@H](O)[C@H](C)O3)Oc3ccc(cc3Cl)[C@H]2O)c2ccc(O)c(c2)-c2c(O)cc(O)cc21)NC(=O)[C@H](CCCCN)NC(=O)[C@H](CCCCN)NC(=O)[C@H](CCCCNC(=O)c1ccc(Oc2ccccc2)cc1)NC(=O)c1ccc(Oc2ccccc2)cc1 [Compound 24, POB2K-KK-K(Vancomycin)-NHMe]
[1]; ATCC 29213
  MIC MSSA: ≤0.016 µg/mL
  MIC S. aureus ATCC29213 MSSA, PP: 1 µg/mL (≈ 0.422 µM)
  MIC S. aureus ATCC29213 MSSA, PS: 2 µg/mL (≈ 0.845 µM)
  MIC S. aureus ATCC29213 MSSA, PS+P-80: 0.031 µg/mL (≈ 0.0131 µM)
[2]
  % compound remaining after incubation in 50% human plasma, 0h: 100%
[3]; [5]
  level at 5 min: 13800 ng/mL
[3]; [6]
  level at […]: 10000 ng/mL
  level at 0.5 h: 5230 ng/mL
  level at 1 h: 3010 ng/mL
  level at 2 h: 1210 ng/mL
  level at 4 h: 285 ng/mL
  level at 8 h: 81.9 ng/mL
[3]; [7]
  level at […]: 227 ng/mL
[3]; [8]
  level at 0.5 h: 548 ng/mL
  level at 1 h: 1400 ng/mL
  level at 2 h: 1920 ng/mL
  level at 4 h: 2350 ng/mL
  level at 8 h: 845 ng/mL
  level at 24 h: 243 ng/mL
[3]; IV 2 mg kg-1
  AUC0-inf/AUC0-last: 101%
  AUC(0-inf): 11200 ng·h/mL
  AUC(0-t): 11000 ng·h/mL
  C0: 16300 ng/mL
  clearance: 2.98 mL/min/kg
  half-life: 137 min
  MRT inf: 1.39 h
  MRT last: 1.24 h
  Vd: 0.248 L/kg
[3]; SC 10 mg kg-1
  AUC0-inf/AUC0-last: 113%
  Tlast: 24 h
  AUC(0-inf): 22600 ng·h/mL
  AUC(0-t): 20000 ng·h/mL
  Cmax: 2350 ng/mL
  Tmax: 4 h
  half-life: 418 min
  MRT inf: 11 h
  MRT last: 7.99 h
[3]
  bioavailability: 36.3%

## CN[C@H](CC(C)C)C(=O)N[C@H]1C(=O)N[C@@H](CC(N)=O)C(=O)N[C@H]2C(=O)N[C@H]3C(=O)N[C@H](C(=O)N[C@H](C(=O)O)c4cc(O)cc(O)c4-c4cc3ccc4O)[C@H](O[C@H]3C[C@](C)(N)[C@@H](O)[C@H](C)O3)c3ccc(c(Cl)c3)Oc3cc2cc(c3O[C@@H]2O[C@H](CO)[C@@H](O)[C@H](O)[C@H]2O[C@H]2C[C@](C)(NCc3ccc(-c4ccc(Cl)cc4)cc3)[C@@H](O)[C@H](C)O2)Oc2ccc(cc2Cl)[C@H]1O [Compound 5, Oritavancin, reference compound]
[1]; read-out: MIC MSSA
  MIC: ≤ 0.016 µg/mL
[1]; read-out: MIC S. aureus ATCC29213 MSSA, NBS
  MIC: ≤ 0.016 µg/mL
[1]; read-out: MIC S. aureus ATCC29213 MSSA, PP
  MIC: 1 µg/mL (≈ 0.558 µM)
[1]; read-out: MIC S. aureus ATCC29213 MSSA, PS
  MIC: 1 µg/mL (≈ 0.558 µM)
[1]; read-out: MIC S. aureus ATCC29213 MSSA, PS+P-80
  MIC: 0.031 µg/mL (≈ 0.0173 µM)

## CCCCCCCCCCC(=O)N[C@@H](CCCCN)C(=O)N[C@@H](CCCCN)C(=O)N[C@@H](CCCCNC(=O)[C@H]1NC(=O)[C@H]2NC(=O)[C@H](NC(=O)[C@@H]3NC(=O)[C@H](CC(N)=O)NC(=O)[C@H](NC(=O)[C@@H](CC(C)C)NC)[C@H](O)c4ccc(c(Cl)c4)Oc4cc3cc(c4O[C@@H]3O[C@H](CO)[C@@H](O)[C@H](O)[C@H]3O[C@H]3C[C@](C)(N)[C@H](O)[C@H](C)O3)Oc3ccc(cc3Cl)[C@H]2O)c2ccc(O)c(c2)-c2c(O)cc(O)cc21)C(N)=O [Compound 21, nC10CO-KK-K(Vancomycin)-NH2]
[3]; [5]
  level at 5 min: 10000 ng/mL
[3]; [6]
  level at […]: 5680 ng/mL
  level at 0.5 h: 4330 ng/mL
  level at 1 h: 2470 ng/mL
  level at 2 h: 1940 ng/mL
  level at 4 h: 758 ng/mL
  level at 8 h: 49.4 ng/mL
[3]; [7]
  level at […]: 944 ng/mL
[3]; [8]
  level at 0.5 h: 1440 ng/mL
  level at 1 h: 2950 ng/mL
  level at 2 h: 3140 ng/mL
  level at 4 h: 2320 ng/mL
  level at 8 h: 1370 ng/mL
  level at 24 h: 45 ng/mL
[3]; IV 2 mg kg-1
  AUC0-inf/AUC0-last: 101%
  Tlast: 8 h
  AUC(0-inf): 10900 ng·h/mL
  AUC(0-t): 10800 ng·h/mL
  C0: 14200 ng/mL
  clearance: 3.13 mL/min/kg
  half-life: 67.2 min
  MRT inf: 1.7 h
  MRT last: 1.6 h
  Vd: 0.31 L/kg
[3]; SC 10 mg kg-1
  AUC0-inf/AUC0-last: 101%
  Tlast: 24 h
  AUC(0-inf): 23400 ng·h/mL
  AUC(0-t): 23100 ng·h/mL
  Cmax: 3560 ng/mL
  Tmax: 2.33 h
  half-life: 204 min
  MRT inf: 6.3 h
  MRT last: 6 h
[3]
  bioavailability: 43%

## CCCCCCCCCCC(=O)N[C@@H](CCCCN)C(=O)N[C@@H](CCCCN)C(=O)N[C@@H](CCCCNC(=O)[C@H]1NC(=O)[C@H]2NC(=O)[C@H](NC(=O)[C@@H]3NC(=O)[C@H](CC(N)=O)NC(=O)[C@H](NC(=O)[C@@H](CC(C)C)NC)[C@H](O)c4ccc(c(Cl)c4)Oc4cc3cc(c4O[C@@H]3O[C@H](CO)[C@@H](O)[C@H](O)[C@H]3O[C@H]3C[C@](C)(N)[C@H](O)[C@H](C)O3)Oc3ccc(cc3Cl)[C@H]2O)c2ccc(O)c(c2)-c2c(O)cc(O)cc21)C(=O)O [Compound 19, nC10CO-KK-K(Vancomycin)-OH]
[1]; ATCC 29213
  MIC S. aureus ATCC29213 MSSA, NBS: ≤ 0.016 µg/mL
  MIC S. aureus ATCC29213 MSSA, PP: 0.125 to 0.25 µg/mL
  MIC S. aureus ATCC29213 MSSA, PS: 0.03 to 0.06 µg/mL
  MIC S. aureus ATCC29213 MSSA, PS+P-80: 0.031 µg/mL (≈ 0.0155 µM)
Haemolysis assay; 100 µg mL-1
  hemolysis at 3 h: 0.7%
Haemolysis assay; 1600 µg mL-1
  hemolysis at 3 h: 0.5%
[3]; [5]
  level at 5 min: 9370 ng/mL
[3]; [6]
  level at […]: 6970 ng/mL
  level at 0.5 h: 6060 ng/mL
  level at 1 h: 4860 ng/mL
  level at 2 h: 2640 ng/mL
  level at 4 h: 1450 ng/mL
  level at 8 h: 137 ng/mL
  level at 24 h: 5.7 ng/mL
[3]; [7]
  level at […]: 2650 ng/mL
[3]; [8]
  level at 0.5 h: 5130 ng/mL
  level at 1 h: 8790 ng/mL
  level at 2 h: 9160 ng/mL
  level at 4 h: 7370 ng/mL
  level at 8 h: 2380 ng/mL
  level at 24 h: 124 ng/mL
[3]; IV 2 mg kg-1
  AUC0-inf/AUC0-last: 100%
  Tlast: 18.7 h
  AUC(0-inf): 16900 ng·h/mL
  AUC(0-t): 16800 ng·h/mL
  C0: 10900 ng/mL
  clearance: 1.98 mL/min/kg
  half-life: 133 min
  MRT inf: 2.26 h
  MRT last: 2.2 h
  Vd: 0.267 L/kg
[3]; SC 10 mg kg-1
  AUC0-inf/AUC0-last: 101%
  Tlast: 24 h
  AUC(0-inf): 60500 ng·h/mL
  AUC(0-t): 59900 ng·h/mL
  Cmax: 9970 ng/mL
  Tmax: 1.67 h
  half-life: 209 min
  MRT inf: 5.59 h
  MRT last: 5.32 h
[3]
  bioavailability: 71.8%
[4]
  Ac2Kaa concentration required to neutralise MIC activity: 100 µg/mL
  MIC: ≤ 4 ng/mL
